Data taken from patent publication EP4431525A1 (Anaveon AG, dated 2024).

Key:
[1] = biological target: T1, human PD-1 expressed on cells (human, UniProt Q15116 25-288); assay: Retrogenix cell microarray, HEK293 cells
T1 construct: whole, on cells; also called hPD-1; PDCD1

[2] = biological target: T2, hPD-1 Avi-Tag Biotin (AcroBiosystems, PD1-H82E4) (human, UniProt Q15116 25-167, biotin on Avi-Tag); assay: IgG format; ELISA / SPR
T2 construct: bought; also called recombinant hPD-1
T2 sequence (Q15116 25-167 limits assumed): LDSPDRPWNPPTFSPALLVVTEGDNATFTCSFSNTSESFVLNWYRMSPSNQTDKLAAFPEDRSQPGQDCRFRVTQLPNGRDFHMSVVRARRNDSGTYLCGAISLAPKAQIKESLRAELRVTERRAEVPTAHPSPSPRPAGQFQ

T1 sequence (Q15116 25-288): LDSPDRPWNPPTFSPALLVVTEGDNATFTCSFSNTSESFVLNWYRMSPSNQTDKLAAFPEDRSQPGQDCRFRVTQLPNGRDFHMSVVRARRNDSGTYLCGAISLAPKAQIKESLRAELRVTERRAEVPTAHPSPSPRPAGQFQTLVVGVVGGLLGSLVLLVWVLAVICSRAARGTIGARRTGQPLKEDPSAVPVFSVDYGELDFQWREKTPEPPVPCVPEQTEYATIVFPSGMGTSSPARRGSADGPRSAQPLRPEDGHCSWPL

Row | binding result [1] | binding result [2] | Binder
1 | binds | binds | z2-XVT458-m1 (antibody, V domains shown, IgG format; also called XVT458-z2-m1; XVT458-z2-ml) VH: QVQLVQSGAEVKKPGASVKVSCKASGYTFTNFYIHWVRQAPGQGLEWMGSIYPNYGFTAYNQKFKDRVTMTVDTSTSTAYMELRSLRSDDTAVYYCARGYSYAMDYWGQGTTVTVSS VL: DIQMTQSPSSVSASVGDRVTITCSASQGIWGDLNWYQQKPGKAPKLLIYHTSQLHSDVPSRFSGSGSGTDFTLTISSLQPEDFATYYCQGYSKDLLTFGGGTKLEIK
2 | binds | binds | z2-XVT458-m6 (antibody, V domains shown, IgG format; also called XVT458-z2-m6; XVT458-Z2-m6) VH: QVQLVQSGAEVKKPGASVKVSCKASGYTFTNFYIHWVRQAPGQGLEWMGSIYPNYGITAYNQKFKDRVTMTVDTSTSTAYMELRSLRSDDTAVYYCARGYSYAMDYWGQGTTVTVSS VL: DIQMTQSPSSVSASVGDRVTITCSASQGISGDLNWYQQKPGKAPKLLIYHTSQLHSDVPSRFSGSGSGTDFTLTISSLQPEDFATYYCQGYSKDLLTFGGGTKLEIK
3 | binds | binds | z2-XVT458-m3 (antibody, V domains shown, IgG format; also called XVT458-z2-m3; XVT458-Z2-M3) VH: QVQLVQSGAEVKKPGASVKVSCKASGYTFTNFYIHWVRQAPGQGLEWMGRIYPNYGITAYNQKFKDRVTMTVDTSTSTAYMELRSLRSDDTAVYYCARGYSYAMDYWGQGTTVTVSS VL: DIQMTQSPSSVSASVGDRVTITCSASQGISGDLNWYQQKPGKAPKLLIYHTSQRHSDVPSRFSGSGSGTDFTLTISSLQPEDFATYYCQGYSKDLLTFGGGTKLEIK
